Laboratory results: patent publication US20090270309A1, “USE OF LACTOFERRIN FRAGMENTS AND HYDROLYSATES” (priority 2005, published 2009)

How the values were obtained:
[1] = test system: primary rat osteoblasts; experiment: Proliferation of primary rat osteoblasts (cell counts and [3H]-thymidine incorporation); assay type: cell-based; details: for Mitogenic / proliferative effect on primary osteoblasts (in words): figure legends, significantly different from control by ANOVA, post hoc Dunnett's test; for Dose (ug/mL): minimum dose range that stimulates osteoblast proliferation: primary rat osteoblasts, Table 1
Experimental: Osteoblasts were isolated by collagenase digestion from 20-day fetal rat ? viously described by Lowe, et al. (1991). Calvariae were dissected aseptically, and the frontal and parietal bones were stripped of their periosteum. Only the central portions of the bones, free from suture tissue, were collected. The calvariae were treated twice with phosphate buffered saline (PBS) containing 3 mM EDTA (pH 7.4) for 15 minutes at 37° C. in a shaking water bath. After washing once in PBS, the calvariae were treated twice with 3 ml of 1 mg/ml collagenase for 7 minutes at 37° C. After discarding the supernatants from digestions I and II, the calvariae were treated further two times with 3 ml of 2 mg/ml collagenase (30 mins, 37° C.). The supernatants of digestions III and IV were pooled, centrifuged, and the cells washed in Dulbecco's modified Eagle's medium (DME) with 10% fetal calf serum (FCS), suspended in DME/10% FCS, and placed in […] flasks. The cells were incubated under 5% CO2 and 95% air at 37° C. Confluence was reached by 5-6 days, at which time the cells were subcultured. After trypsinization using trypsin-EDTA (0.05%/0.53 mM), the cells were rinsed in minimum essential medium (MEM) with 5% FCS and resuspended in a fresh medium, then seeded at 5×10^4 cells/ml in 24-well plates (0.5 ml cell suspension per well, i.e., 1.4×10^4 cells/cm^2).
Proliferation studies (cell counts and thymidine incorporation) were performed both in actively growing and non-actively growing cell populations. To produce actively growing cells, sub-confluent populations (24 h after subculturing) were placed in fresh MEM containing 1% FCS and a lactoferrin fragment sample (see Table 1 below). To produce non-actively growing cells, sub-confluent populations were placed in serum-free medium with 0.1% bovine serum albumin plus a lactoferrin fragment sample. Cell numbers were analyzed at 6, 24, and 48 hours after the addition of lactoferrin fragment samples. The cell numbers were determined after detaching cells from the wells by exposure to trypsin/EDTA (0.05%/0.53 mM) for approximately 5 minutes at 37° C. Counting was performed in a haemocytometer chamber. [3H]-thymidine incorporation into actively growing and non-actively growing cells was assessed by pulsing the cells with [3H]-thymidine (1 μCi/well) two hours before the end of the incubation. The experiment was terminated at 6, 24, or 48 hours by washing the cells in MEM containing cold thymidine followed by the addition of 10% trichloroacetic acid. The precipitate was washed twice with ethanol:ether (3:1), and the wells desiccated at room temperature. The ? redissolved in 2 M KOH at 55° C. for 30 min, neutralized with 1 M HCl, and an aliquot counted for radioactivity. For both cell counts and thymidine incorporation, each experiment at each time point was performed at least 4 different times using experimental groups consisting of at least 6 wells.
The osteogenic response seen above was compared with that of insulin-like growth factor 1 (IGF-1), a well-recognized osteoblast mitogen. The magnitudes of response of the lactoferrin fragments were similar to IGF-1 in the same osteoblast cell culture system.

[2] = test system: osteoclast development in a bone marrow culture; experiment: Osteoclast development in mouse bone marrow culture (count of multinucleated osteoclast-like cells); assay type: cell-based; details: for Concentration with significant inhibition of osteoclast development: FIG. 7; for Inhibition of osteoclast development in a bone marrow culture (in words): mouse bone marrow culture, 1 week, ANOVA P<0.0001
Experimental: Bone marrow cultures were used to determine the effect of lactoferrin fragments on osteoclast development. The method used has been previously described (see Cornish, et al., (2001)). Bone marrow was obtained from the long bones of four to six week old Swiss male mice by flushing the marrow cavity with media. The cell suspension was incubated for two hours and the non-adherent cells were plated into 48-well plates and cultured in 1.25 vitamin D3 enriched media for 1 week with lactoferrin fragments at a range of concentrations. Cells were fixed and stained and multinucleated osteoclast-like cells were counted.
A recombinant N-lobe fragment of full length recombinant human lactoferrin (SEQ ID NO. 5) and a lactoferrin C-lobe fragment (SEQ ID NO. 8) were tested. Osteoprotegerin was used as a positive inhibitor control. Full length recombinant human lactoferrin was also tested. The results are shown in FIGS. 6 and 7, as described above.

| Molecule | Mitogenic / proliferative effect on primary osteoblasts (in words) [1] | Dose (ug/mL): minimum dose range that stimulates osteoblast proliferation [1] [µg/mL] | Concentration with significant inhibition of osteoclast development ([2]; P<0.05 (post hoc Dunnett's test)) [µg/mL] | Inhibition of osteoclast development in a bone marrow culture (in words) [2] | Concentration with significant inhibition of osteoclast development ([2]; positive inhibitor control, P<0.01 (post hoc Dunnett's test)) [µg/mL] |
| --- | --- | --- | --- | --- | --- |
| SEQ ID NO. 8: Bovine lactoferrin C-lobe, residues 285-689 of SEQ ID NO. 2, controlled tryptic hydrolysis (protein, listed as Bos taurus) SFQLFGSPPGQRDLLFKDSALGFLRIPSKVDSALYLGSRYLTTLKNLRETAEEVKARYTRVVWCAVGPEEQKKCQQWSQQSGQNVTCATASTTDDCIVLVLKGEADALNLDGGYIYTAGKCGLVPVLAENRKSSKHSSLDCVLRPTEGYLAVAVVKKANEGLTWNSLKDKKSCHTAVDRTAGWNIPMGLIVNQTGSCAFDEFFSQSCAPGADPKSRLCALCAGDDQGLDKCVPNSKEKYYGYTGAFRCLAEDVGDVAFVKNDTVWENTNGESTADWAKNLNREDFRLLCLDGTRKPVTEAQSCHLAVAPNHAVVSRSDRAAHVKQVLLHQQALFGKNGKNCPDKFCLFKSETKNLLFNDNTECLAKLGGRPTYEEYLGTEYVTAIANLKKCSTSPLLEACAFLTR | mitogenic to primary osteoblasts | 1 to 100 | 50 | inhibition of osteoclast development |  |
| osteoprotegerin (protein, UniProt O00300 22-401, looked up) Tumor necrosis factor …: ETFPPKYLHYDEETSHQLLCDKCPPGTYLKQHCTAKWKTVCAPCPDHYYTDSWHTSDECLYCSPVCKELQYVKQECNRTHNRVCECKEGRYLEIEFCLKHRSCPPGFGVVQAGTPERNTVCKRCPDGFFSNETSSKAPCRKHTNCSVFGLLLTQKGNATHDNICSGNSESTQKCGIDVTLCEEAFFRFAVPTKFTPNWLSVLVDNLPGTKVNAESVERIKRQHSSQEQTFQLLKLWKHQNKDQDIVKKIIQDIDLCENSVQRHIGHANLTFEQLRSLMESLPGKKVGAEDIEKTIKACKPSDQILKLLSLWRIKNGDQDTLKGLMHALKHSKTYHFPKTVTQSLKKTIRFLHSFTMYKLYQKLFLEMIGNQVQSVKISCL |  |  |  |  | 0.01 |
| SEQ ID NO. 7: Bovine lactoferrin C-lobe, residues 345-689 of SEQ ID NO. 2, tryptic cleavage (protein, listed as Bos taurus) VVWCAVGPEEQKKCQQWSQQSGQNVTCATASTTDDCIVLVLKGEADALNLDGGYIYTAGKCGLVPVLAENRKSSKHSSLDCVLRPTEGYLAVAVVKKANEGLTWNSLKDKKSCHTAVDRTAGWNIPMGLIVNQTGSCAFDEFFSQSCAPGADPKSRLCALCAGDDQGLDKCVPNSKEKYYGYTGAFRCLAEDVGDVAFVKNDTVWENTNGESTADWAKNLNREDFRLLCLDGTRKPVTEAQSCHLAVAPNHAVVSRSDRAAHVKQVLLHQQALFGKNGKNCPDKFCLFKSETKNLLFNDNTECLAKLGGRPTYEEYLGTEYVTAIANLKKCSTSPLLEACAFLTR | mitogenic to primary osteoblasts | 1 to 100 |  |  |  |
| full length recombinant human lactoferrin: Full-length recombinant human lactoferrin, comparator (protein, UniProt P02788 1-710, looked up, full-length recombinant, Full-length recombinant human lactoferrin, comparator) MKLVFLVLLFLGALGLCLAGRRRSVQWCAVSQPEATKCFQWQRNMRKVRGPPVSCIKRDSPIQCIQAIAENRADAVTLDGGFIYEAGLAPYKLRPVAAEVYGTERQPRTHYYAVAVVKKGGSFQLNELQGLKSCHTGLRRTAGWNVPIGTLRPFLNWTGPPEPIEAAVARFFSASCVPGADKGQFPNLCRLCAGTGENKCAFSSQEPYFSYSGAFKCLRDGAGDVAFIRESTVFEDLSDEAERDEYELLCPDNTRKPVDKFKDCHLARVPSHAVVARSVNGKEDAIWNLLRQAQEKFGKDKSPKFQLFGSPSGQKDLLFKDSAIGFSRVPPRIDSGLYLGSGYFTAIQNLRKSEEEVAARRARVVWCAVGEQELRKCNQWSGLSEGSVTCSSASTTEDCIALVLKGEADAMSLDGGYVYTAGKCGLVPVLAENYKSQQSSDPDPNCVDRPVEGYLAVAVVRRSDTSLTWNSVKGKKSCHTAVDRTAGWNIPMGLLFNQTGSCKFDEYFSQSCAPGSDPRSNLCALCIGDEQGENKCVPNSNERYYGYTGAFRCLAENAGDVAFVKDVTVLQNTDGNNNEAWAKDLKLADFALLCLDGKRKPVTEARSCHLAMAPNHAVVSRMDKVERLKQVLLHQQAKFGRNGSDCPDKFCLFQSETKNLLFNDNTECLARLHGKTTYEKYLGPQYVAGITNLKKCSTSPLLEACEFLRK |  |  |  | inhibition of osteoclast development |  |
| SEQ ID NO. 6: Bovine lactoferrin N-lobe, residues 1-280 of SEQ ID NO. 2, tryptic cleavage (protein, listed as Bos taurus) APRKNVRWCTISQPEWFKCRRWQWRMKKLGAPSITCVRRAFALECIRAIAEKKADAVTLDGGMVFEAGRDPYKLRPVAAEIYGTKESPQTHYYAVAVVKKGSNFQLDQLQGRKSCHTGLGRSAGWIIPMGILRPYLSWTESLEPLQGAVAKFFSASCVPCIDRQAYPNLCQLCKGEGENQCACSSREPYFGYSGAFKCLQDGAGDVAFVKETTVFENLPEKADRDQYELLCLNNSRAPVDAFKECHLAQVPSHAVVARSVDGKEDLIWKLLSKAQEKFGK | mitogenic to primary osteoblasts | 1 to 100 |  |  |  |
| SEQ ID NO. 5: Recombinant human lactoferrin N-lobe, residues 1-333 of SEQ ID NO. 4, expressed from baby hamster kidney cells (protein, Recombinant human lactoferrin N-lobe, 4, expressed from baby hamster kidney cells) GRRRRSVQWCAVSQPEATKCFQWQRNMRKVRGPPVSCIKRDSPIQCIQAIAENRADAVTLDGGFIYEAGLAPYKLRPVAAEVYGTERQPRTHYYAVAVVKKGGSFQLNELQGLKSCHTGLRRTAGWNVPIGTLRPFLNWTGPPEPIEAAVARFFSASCVPGADKGQFPNLCRLCAGTGENKCAFSSQEPYFSYSGAFKCLRDGAGDVAFIRESTVFEDLSDEAERDEYELLCPDNTRKPVDKFKDCHLARVPSHAVVARSVNGKEDAIWNLLRQAQEKFGKDKSPKFQLFGSPSGQKDLLFKDSAIGFSRVPPRIDSGLYLGSGYFTAIQNLR | osteoblast proliferative effects | 0.1 to 10 |  | inhibition of osteoclast development |  |
